B1: M0040-A06: human antibody (Fab, IgG) that binds and inhibits MMP-14; HC SEQ ID NO: 162, LC SEQ ID NO: 163 (antibody, V domains shown)
VH: EVQLLESGGGLVQPGGSLRLSCAASGFTFSYYGMYWVRQAPGKGLEWVSSISSSGGYTDYADSVKGRFTISRDNSKNTLYLQMNSLRAEDTAVYYCARRIKYYDIEGEGAFDIWGQGTMVTVSS
VL: QDIVMTQTPPSLPVNPGEPASISCRSSQSLLHRNGYNYLDWYLQKPGQSPQLLIHLGSYRASGVPDRFSGSGSGTDFTLKISRVEAEDVGVYYCMQPLQTPFTFGPGTKVDIK
modifications: Synthetically generated peptide
B2: M0038-F01: human antibody (Fab, IgG) that binds and inhibits MMP-14; HC SEQ ID NO: 156, LC SEQ ID NO: 157 (antibody, V domains shown)
VH: EVQLLESGGGLVQPGGSLRLSCAASGFTFSLYSMNWVRQAPGKGLEWVSSIYSSGGSTLYADSVKGRFTISRDNSKNTLYLQMNSLRAEDTAVYYCARGRAFDIWGQGTMVTVSS
VL: QDIQMTQSPSSLSAFVGDKVTITCRASQSVGTYLNWYQQKAGKAPELLIYATSNLRSGVPSRFSGSGSGTDFTLTINTLQPEDFATYYCQQSYSIPRFTFGPGTKVDIK
modifications: Synthetically generated peptide

What was measured:
MMP-8 = MMP-8 (Homo sapiens, UniProt P22894); experiment: Cross-reactivity of anti-MMP-14 IgGs, enzymatic activity: MMP-8; assay type: biochemical; conditions: 1 μM anti-MMP-14 IgG
Chain of MMP-8 (P22894 101-467): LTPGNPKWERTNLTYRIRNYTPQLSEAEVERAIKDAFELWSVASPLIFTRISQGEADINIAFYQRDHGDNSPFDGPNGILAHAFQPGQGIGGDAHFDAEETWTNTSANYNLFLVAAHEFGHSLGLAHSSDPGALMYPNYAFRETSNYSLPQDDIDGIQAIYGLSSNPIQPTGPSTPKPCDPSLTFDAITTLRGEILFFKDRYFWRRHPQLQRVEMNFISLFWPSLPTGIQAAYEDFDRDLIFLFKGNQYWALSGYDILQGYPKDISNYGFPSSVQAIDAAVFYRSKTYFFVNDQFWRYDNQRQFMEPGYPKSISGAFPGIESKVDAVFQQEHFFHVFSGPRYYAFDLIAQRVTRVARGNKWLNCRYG
Description: The cross-reactivity of exemplary anti-MMP-14 IgGs and Fabs with other human MMPs and TACE (TNF-alpha converting enzyme) was examined. MMP and TACE enzymatic activity was monitored in the absence and presence of 1 μM anti-MMP-14 IgG antibody. Inhibition (Y) of activity ranged from approximately 50-80% of the reaction rate observed in the absence of antibody. “X” indicates no inhibition was observed. Cross-reactivity was not determined for MMP-17 because protein activity could not be detected.
For the studies summarized in Table 12, six anti-MMP-14 IgGs were selected for cross-reactivity testings: M0043-G02, M0040-A06, M0037-D01, M037-C09, M0038-F01, M0033-H07.

[1] = system: BT747 breast cancer tumor fragments; experiment: BT747 breast tumor growth; assay type: in vivo, mouse; conditions: small initial tumor size groups; M0038-F01 10, 1 or 0.1 mg/kg Q2d IP; trastuzumab 20 mg/kg
Description: Fragments (approximately 1 mm^3) of BT747 breast cancer tumor fragments were implanted into the flanks of female HRLN CB.17 SCID mice. […] All groups were dosed by intraperitoneal (IP) injection. Tumor volume was measured biweekly.

MDA-MB-435 GFP tumors = experiment: MDA-MB-435 GFP orthotopic breast tumor growth; assay type: in vivo, mouse; conditions: for Tumor Mass (±SD): excised primary tumor
Source text: Fragments of MDA-MB-435 GFP (MDA-MB-435 cells expressing green fluorescent protein) tumors were transplanted by surgical orthotopic implantation (SOI) into the right second mammary gland. Treatment was started on day 15 after SOI when the volume of primary tumors reached about 85 mm^3.
Mice were sacrificed at day 61 after the start of the treatment and tumors (primary and metastases) were identified by fluorescent imaging. Additionally, primary tumors were excised and weighed. […] However, M0038-F01 was not effective in reducing lymph node or lung metastases in this experiment.

MMP14 = molecular target: T1, MMP14 (Mus musculus, UniProt P53690); experiment: Immunohistochemical staining in acute phase SCW-induced arthritis; conditions: 7 days after first injection of SCW
T1 construct: from tissue; host or cells: knee joints of C57Bl6 mice with SCW-induced arthritis (synovial cells, chondrocytes, macrophages)
Description: Antigen-induced arthritis, a model of rheumatoid arthritis, was induced by intraarticular injection of Streptococcus cell wall (SCW, […]) into the knee joints of C57B16 mice at day 0, 7, 14 and 21.
MMP14 expression in acute phase SCW-induced arthritis (7 days after the first injection of SCW) was examined by immunohistochemical staining using M0038-F01.

B16F1 melanoma tumors = experiment: B16F1 melanoma subcutaneous tumor growth; assay type: in vivo, mouse; conditions: M0038-F01 10, 1 or 0.1 mg/kg Q2d IP; doxorubicin 5 mg/kg weekly IP
Source text: B16F1 melanoma cells were implanted into Female C57/BL6 (CR) mice (4-6 Weeks old) mice by subcutaneous injection.

[2] = system: B16F1 melanoma lung metastases; experiment: B16F1 melanoma metastasis model, tail vein injection; assay type: in vivo, mouse; conditions: 10 mg/kg Q2d IP, 14 days; lungs taken day 15
Description: MMP-14 binding antibodies were also tested in a model of melanoma metastasis. B16F1 cells were grown in culture, harvested at 85% confluence and inoculated at 5×10^5 cells/mouse in 100 μl saline by tail vein injection. Treatment started on Day 1, post inoculation, for 14 days. […] On day 15, animals were sacrificed and lungs taken, fixed, and analyzed for the number of metastases (nodules).

| Molecule | Cross reactivity: inhibition of MMP-8 activity (MMP-8) | tumor growth [1] | Tumor Mass (±SD) (MDA-MB-435 GFP tumors; 0.1 mg/kg Q2d IP, day 61) | Tumor Mass (±SD) (MDA-MB-435 GFP tumors; 1 mg/kg Q2d IP, day 61, * p≦0.05 compared to Control) | Tumor Mass (±SD) (MDA-MB-435 GFP tumors; 10 mg/kg (F01 and A2 Q2d IP; taxotere QW×3 i.v.), day 61, * p≦0.05 compared to Control) | tumor volume (MDA-MB-435 GFP tumors; M0038-F01 1 or 10 mg/kg Q2d IP, taxotere 10 mg/kg QW×3 i.v.) | lymph node or lung metastases (MDA-MB-435 GFP tumors; fluorescent imaging, day 61) | immunohistochemical staining of joint tissue (MMP14) | tumor growth (B16F1 melanoma tumors) | number of lung melanoma tumors (nodules) [2] |
| --- | --- | --- | --- | --- | --- | --- | --- | --- | --- | --- |
| B1 | Y (Inhibition (Y) of activity ranged from approximately 50-80% of the reaction rate observed in the absence of antibody) | – | – | – | – | – | – | – | – | – |
| B2 | – | inhibition of tumor growth | 1.54 ± 0.91 | 0.86 ± 0.21* | 0.82 ± 0.35* | reduction of tumor volume | not effective | strongly stained synovial cells and chondrocytes, as well as macrophages in joint exudate | effective in reducing tumor growth | substantially reduced the number of lung melanoma tumors |
